Biological target: the molecule itself
Assay: cryo-EM structure; CLC-ec1 in Salipro (Saposin-A, POPE/POPG) nanoparticles, 10 mM Hepes, 150 mM NaCl, pH 7.5; C2 symmetry imposed

B1: CLC-ec1 (wild type) (natural protein, E. coli)
chain: MKTDTPSLETPQAARLRRRQLIRQLLERDKTPLAILFMAAVVGTLVGLAAVAFDKGVAWLQNQRMGALVHTADNYPLLLTVAFLCSAVLAMFGYFLVRKYAPEAGGSGIPEIEGALEDQRPVRWWRVLPVKFFGGLGTLGGGMVLGREGPTVQIGGNIGRMVLDIFRLKGDEARHTLLATGAAAGLAAAFNAPLAGILFIIEEMRPQFRYTLISIKAVFIGVIMSTIMYRIFNHEVALIDVGKLSDAPLNTLWLYLILGIIFGIFGPIFNKWVLGMQDLLHRVHGGNITKWVLMGGAIGGLCGLLGFVAPATSGGGFNLIPIATAGNFSMGMLVFIFVARVITTLLCFSSGAPGGIFAPMLALGTVLGTAFGMVAVELFPQYHLEAGTFAIAGMGALLAASIRAPLTGIILVLEMTDNYQLILPMIITGLGATLLAQFTGGKPLYSAILARTLAKQEAEQLARSK
notes: CLC-ec1, the E. coli CLC Cl-/H+ exchange transporter homolog; The eluate of the cobalt column was incubated with Endoproteinase Lys-C; Homodimer in the cryo-EM maps (C2 symmetry imposed); also called WT CLC-ec1; WT
B1: binds.
